The values below come from IntAct's records for PubMed 20818336.

First the molecules themselves.
B1: Myocardin-related transcription factor A (Mus musculus), Q8K4J6 (parent)
chain: MTLLEPEMLMMAVQSVLQLKLQQRRTREELVSQGIMPPLKSPAAFHEQRRSLERARTEDYLKRKIRSRPERAELVRMHILEETSAEPSLQAKQLKLKRARLADDLNEKIAQRPGPMELVEKNILPVESSLKEAIIVGQVNYPKVADSSSFDEDSSDALSPEQPASHESQGSVPSPLESRVSDPLPSATSISPTQVLSQLPMAPDPGETLFLAEQPPLPPAPLLPPSLANGSIVPTAKPAPTLIKQSQPKSASEKSQRSKKAKELKPKVKKLKYHQYIPPDQKQDKGAPAMDSSYAKILQQQQLFLQLQILNQQQQQQQQQHYNYQAILPAPPKPSAETPGSSAPTPSRSLSTSSSPSSGTPGPSGLARQSSTALAAKPGALPANLDDMKVAELKQELKLRSLPVSGTKTELIERLRAYQDQVSPAPGAPKAPATTSVLSKAGEVVVAFPAALLSTGSALVTAGLAPAEMVVATVTSNGMVKFGSTGSTPPVSPTPSERSLLSTGDENSTPGDAFGEMVTSPLTQLTLQASPLQIVKEEGARAASCCLSPGARAELEGLDKDQMLQEKDKQIEELTRMLQQKQQLVELLRLQLEQQKRAQQPAPASSPVKRESGFSSCQLSCQPQGSAHAFGSGLVVPTTNHGDTQAPAPESPPVVVKQEAGPPEPDLAPSSQLLLGSQGTSFLKRVSPPTLVTDSTGTHLILTVTNKSADGPGLPAGSPQQPLSQPGSPAPGPPAQMDLEHPPQPPFATPTSLLKKEPPGYEETVTQQPKQQENGSSSQHMDDLFDILIQSGEISADFKEPPSLPGKEKSPPAAAAYGPPLTPQPSPLSELPQAAPPPGSPTLPGRLEDFLESSTGLPLLTSGHEGPEPLSLIDDLHSQMLSSSAILDHPPSPMDTSELHFAPEPSSGMGLDLAVGHLDSMDWLELSSGGPVLSLAPLSTAAPSLFSMDFLDGHDLQLHWDSCL
B2: Importin subunit alpha-3 (Homo sapiens), O00629 (parent)
chain: MADNEKLDNQRLKNFKNKGRDLETMRRQRNEVVVELRKNKRDEHLLKRRNVPHEDICEDSDIDGDYRVQNTSLEAIVQNASSDNQGIQLSAVQAARKLLSSDRNPPIDDLIKSGILPILVHCLERDDNPSLQFEAAWALTNIASGTSEQTQAVVQSNAVPLFLRLLHSPHQNVCEQAVWALGNIIGDGPQCRDYVISLGVVKPLLSFISPSIPITFLRNVTWVMVNLCRHKDPPPPMETIQEILPALCVLIHHTDVNILVDTVWALSYLTDAGNEQIQMVIDSGIVPHLVPLLSHQEVKVQTAALRAVGNIVTGTDEQTQVVLNCDALSHFPALLTHPKEKINKEAVWFLSNITAGNQQQVQAVIDANLVPMIIHLLDKGDFGTQKEAAWAISNLTISGRKDQVAYLIQQNVIPPFCNLLTVKDAQVVQVVLDGLSNILKMAEDEAETIGNLIEECGGLEKIEQLQNHENEDIYKLAYEIIDQFFSSDDIDEDPSLVPEAIQGGTFGFNSSANVPTEGFQF
partner: B1 chain

In one assay the parent is B1. The conditions noted are these: with ima3_human KPNA4, O00629.
As to K62A;R63A;K64A, the “effect of a mutation on the interaction” value is listed as “decreasing interaction strength”.
Take K95A;L96A;K97A: the “effect of a mutation on the interaction” value was “decreasing interaction strength”.
As to K62A;R63A;K64A;K95A;L96A;K97A, the “effect of a mutation on the interaction” value was “disrupting interaction strength”.

Variants of B1 are the subject of another assay. Particulars: with imb1_human KPNB1, Q14974.
Sequence of imb1_human KPNB1, Q14974 (Q14974 whole entry): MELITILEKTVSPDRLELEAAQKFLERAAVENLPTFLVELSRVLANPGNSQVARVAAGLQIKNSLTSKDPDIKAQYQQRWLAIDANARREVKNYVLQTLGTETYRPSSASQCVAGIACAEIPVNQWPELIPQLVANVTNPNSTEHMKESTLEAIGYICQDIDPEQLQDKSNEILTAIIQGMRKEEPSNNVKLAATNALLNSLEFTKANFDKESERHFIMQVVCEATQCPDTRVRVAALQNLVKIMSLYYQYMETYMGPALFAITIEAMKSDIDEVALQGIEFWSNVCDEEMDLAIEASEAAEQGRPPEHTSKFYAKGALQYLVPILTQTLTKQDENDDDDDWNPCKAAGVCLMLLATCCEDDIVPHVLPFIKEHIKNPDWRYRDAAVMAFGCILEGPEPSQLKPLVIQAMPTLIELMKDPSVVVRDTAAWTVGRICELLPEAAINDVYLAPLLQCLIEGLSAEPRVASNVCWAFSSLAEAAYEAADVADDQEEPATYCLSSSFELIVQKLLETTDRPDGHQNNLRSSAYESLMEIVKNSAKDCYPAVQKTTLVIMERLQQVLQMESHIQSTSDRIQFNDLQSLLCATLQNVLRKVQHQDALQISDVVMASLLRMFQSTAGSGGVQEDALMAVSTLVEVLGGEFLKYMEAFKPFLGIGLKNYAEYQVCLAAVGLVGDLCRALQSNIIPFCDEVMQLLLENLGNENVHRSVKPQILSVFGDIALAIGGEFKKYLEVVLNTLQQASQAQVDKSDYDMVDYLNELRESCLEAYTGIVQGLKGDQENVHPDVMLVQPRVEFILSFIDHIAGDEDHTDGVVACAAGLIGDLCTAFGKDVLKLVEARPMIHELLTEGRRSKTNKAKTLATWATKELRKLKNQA
For the variant K62A;R63A;K64A, the “effect of a mutation on the interaction” value is on record as “decreasing interaction strength”.
Still for that read-out and setting: the value for K95A;L96A;K97A was “disrupting interaction strength”.

The next assay covers variants of B2. The conditions noted are these: with mrtfa_mouse Mrtfa.
In the case of W179A;N183A, the “effect of a mutation on the interaction” value is listed as “decreasing interaction strength”.
On the same count and under the same terms, the value for W179A;N183A;W390A;N394A was “decreasing interaction strength”; that for W390A;N394A was “decreasing interaction strength”.
